According to article PMC2763920 (Electrophoresis, 2009):
Several values for one entry are separate records, joined by “and”; a condition that tells them apart may be missing. Equal entries are not always repeated. Square brackets hold non-standard residues; d marks the D form. Ends that are not written are not given here. pY = N[C@@H](Cc1ccc(OP(=O)(O)O)cc1)C(=O)O

Assays:
[1] = biological target: T1, GST-Fyn-SH3-SH2 (fluorescein on the N-terminus; phosphotyrosine (pY) at position 7 of the printed letters); assay: fluorescence polarisation
[2] = biological target: T1, GST-Fyn-SH3-SH2; assay: high-speed capillary electrophoresis
[3] = biological target: T1, GST-Fyn-SH3-SH2; assay: high-speed capillary electrophoresis; remark: listed apart in the source

Binder: fluorescein-EEEEPQ[pY]EEIPIYL [Fluor-Fyn peptide (fluorescein-EEEEPQpYEEIPIYL)]
- t1/2, two component decay, first component [1]: 3.3 s
- t1/2, two component decay, second component [1]: 59.5 s
- t1/2 of the complex, single exponential decay [1]: 21.2 ± 1.3 s
- stoichiometry N [2]: 0.5 peptide per protein (printed 2:1 protein: peptide, complex 1) and 1 peptide per protein (printed 2:2 protein: peptide, complex 2)
- t1/2 of complex 1 [3]: 22 s
- t1/2 of complex 2 [3]: 58.8 s
